Source: patent US20220041709A1 (MITSUBISHI TANABE PHARMA, published 2022)

Assays:
Human IL-33 [1] = biological target: T1, Human IL-33 (human, UniProt O95760 112-270, limits assumed); test: ELISA on plate-coated human IL-33, HRP anti-human IgG detection; 10 mg/mL formulation, 2 to 8 C, T0
T1 construct: also called NF-HEV
T1 sequence (looked up): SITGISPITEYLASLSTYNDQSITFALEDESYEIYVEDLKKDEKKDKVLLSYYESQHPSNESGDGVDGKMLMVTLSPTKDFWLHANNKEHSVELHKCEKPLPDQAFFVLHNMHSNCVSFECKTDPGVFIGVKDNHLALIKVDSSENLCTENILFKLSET
Method: (§1) Compositions of 10 mg/mL of each human anti-IL-33 monoclonal antibody (A10-1C04, A23-1A05, A25-2C02, A25-3H04 or A26-1F02) were prepared with 10 mM histidine/pH 6/0.02% (w/v) polysorbate 80/3.6% (w/v) sorbitol, and then each filled into a glass vial and sealed with a halogenated butyl rubber stopper, and stored for 1, 2 and 3 years at a temperature of 2 to 8° C. as a long-term stability test. The presence or absence of aggregation was confirmed by visual examination for 5 seconds each under a 2000 to 3750 Lux fluorescent lamp, against white and black board backgrounds. The binding activity was evaluated by the following method. Human IL-33 was added to a 96-well plate and allowed to form a solid phase overnight. BSA was used for blocking, and then the sample solution was added to each well, reacted with HRP-labeled anti-human IgG antibody and colored with TMB. The absorbance at 450 nm and 650 nm was then measured with a plate reader (Molecular Devices Corp.) to determine the EC50 value. The EC50 value of the standard solution was also determined in the same manner, and the ratio was calculated.

Human IL-33 [2] = biological target: T1, Human IL-33; test: ELISA on plate-coated human IL-33, HRP anti-human IgG detection; 150 mg/mL formulation, 2 to 8 C, T0
Method: The presence or absence of aggregation was confirmed by visual examination for 5 seconds each under a 2000 to 3750 Lux fluorescent lamp, against white and black board backgrounds. The binding activity was evaluated by the following method. Human IL-33 was added to a 96-well plate and allowed to form a solid phase overnight. BSA was used for blocking, and then the sample solution was added to each well, reacted with HRP-labeled anti-human IgG antibody and colored with TMB. The absorbance at 450 nm and 650 nm was then measured with a plate reader (Molecular Devices Corp.) to determine the EC50 value. The EC50 value of the standard solution was also determined in the same manner, and the ratio was calculated.
(§2) Compositions of 150 mg/mL of each human anti-IL-33 monoclonal antibody (A10-1C04, A23-1A05, A25-2C02, A25-3H04 or A26-1F02) were prepared with 10 mM histidine/pH 6/0.02% (w/v) polysorbate 80/4.0% (w/v) sorbitol, and then each was filled into a glass vial and sealed with a halogenated butyl rubber stopper, and stored for 3 and 6 months at a temperature of 2 to 8° C. as a long-term stability test. The evaluation was conducted by the same method as Example 14.

Human IL-33 [3] = biological target: T1, Human IL-33; test: ELISA on plate-coated human IL-33, HRP anti-human IgG detection; 10 mg/mL formulation stored 1 year at 2 to 8 C
Method: as §1

Human IL-33 [4] = biological target: T1, Human IL-33; test: ELISA on plate-coated human IL-33, HRP anti-human IgG detection; 10 mg/mL formulation stored 2 years at 2 to 8 C
Method: as §1

Human IL-33 [5] = biological target: T1, Human IL-33; test: ELISA on plate-coated human IL-33, HRP anti-human IgG detection; 10 mg/mL formulation stored 3 years at 2 to 8 C
Method: as §1

Human IL-33 [6] = biological target: T1, Human IL-33; test: ELISA on plate-coated human IL-33, HRP anti-human IgG detection; 150 mg/mL formulation stored 3 months at 2 to 8 C
Method: as §1, with “monoclonal” for “Compositions of 10 mg/mL of each human anti-IL-33 monoclonal”, “and stored for 1, 2 and 3 years at a temperature of 2 to” left out
as §2, with “The evaluation was conducted by the same method as Example 14.” left out

Human IL-33 [7] = biological target: T1, Human IL-33; test: ELISA on plate-coated human IL-33, HRP anti-human IgG detection; 150 mg/mL formulation stored 6 months at 2 to 8 C
Method: as §1, with “monoclonal” for “Compositions of 10 mg/mL of each human anti-IL-33 monoclonal”, “and stored for 1, 2 and 3 years at a temperature of 2 to” left out
as §2, with “The evaluation was conducted by the same method as Example 14.” left out

Binding activity (ratio of EC50 to that of the standard solution) (Human IL-33 [1]): 100%
Binding activity (ratio of EC50 to that of the standard solution) (Human IL-33 [2]): 115%
Binding activity (ratio of EC50 to that of the standard solution) (Human IL-33 [3]): 110%
Binding activity (ratio of EC50 to that of the standard solution) (Human IL-33 [4]): 101%
Binding activity (ratio of EC50 to that of the standard solution) (Human IL-33 [5]): 101%
Binding activity (ratio of EC50 to that of the standard solution) (Human IL-33 [6]): 110%
Binding activity (ratio of EC50 to that of the standard solution) (Human IL-33 [7]): 100%
B1: human anti-IL-33 monoclonal antibody A10-1C04 (antibody, human IgG1, lambda, V domains shown)
VH: EVQLLESGGGLVQPGGSLRLSCAASGFTFSDYYMNWVRQAPGKGLEWVSSISRYSSYIYYADSVKGRFTISRDNSKNTLYLQMNSLRAEDTAVYYCARDIGGMDVWGQGTLVTVSS
VL: QSVLTQPPSASGTPGQRVTISCTGSSSNIGAVYDVHWYQQLPGTAPKLLIYRNNQRPSGVPDRFSGSKSGTSASLAISGLRSEDEADYYCQTYDSSRWVFGGGTKLTVLG
notes: Detected with anti-human IgG antibody in the ELISA
